Columns and labels:
[1] = biological target: T1, recombinant prostate-specific antigen (PSA) (human, UniProt P07288 25-261, limits assumed); experiment: ELISA of the protein G purified antibody on recombinant PSA
T1 construct: also called recombinant PSA; recombinantly produced PSA

[2] = biological target: T1, recombinant prostate-specific antigen …; experiment: immunoprecipitation with protein G after incubation with recombinant PSA; blot developed with a commercial anti-PSA antibody
Description: (§1) FIGS. 4A-E present anti-PSA clone 10 humanization: FIG. 4A. Four anti-PSA antibodies were expressed as chimeras and expression was measured through ELISA of the supernatant SEQ ID Nos.: 83/84, 85/86, 87/88, 81/82). […] FIG. 4B. Expression of five humanized designs for clone 10 was measured through ELISA of the supernatant. […] FIG. 4C. […] FIG. 4D. […] Membrane was developed with a commercial anti-PSA antibody. […] FIG. 4E.

[3] = biological target: T2, natively expressed PSA (supernatant of LNCaP cells) (human, UniProt P07288 25-261); experiment: immunoprecipitation with protein G after overnight incubation with LNCaP supernatant; blot developed with a commercial anti-PSA antibody
T2 construct: also called native PSA
Description: as §1

hen-egg white lysozyme [4] = biological target: T3, hen-egg white lysozyme (hen, UniProt P00698 19-147); experiment: yeast surface display of scFv, 240 nM lysozyme
T3 construct: also called HEWL

hen-egg white lysozyme [5] = biological target: T3, hen-egg white lysozyme; experiment: bilayer interferometry, IgG1 loaded on the sensor at 1 ug/mL, lysozyme at 1000, 250, 100, 25 and 10 nM
Description: FIGS. 5A-D present anti lysozyme antibody SDR-grafting: FIG. 5A. […] FIG. 5B. […] FIG. 5C. […] FIG. 5D. […] Lysozyme was at concentrations of […] and 1 μg/mL antibody was loaded onto the sensor.

hen-egg white lysozyme [6] = biological target: T3, hen-egg white lysozyme; experiment: surface plasmon resonance, Fab

T1 sequence (P07288 25-261 limits assumed): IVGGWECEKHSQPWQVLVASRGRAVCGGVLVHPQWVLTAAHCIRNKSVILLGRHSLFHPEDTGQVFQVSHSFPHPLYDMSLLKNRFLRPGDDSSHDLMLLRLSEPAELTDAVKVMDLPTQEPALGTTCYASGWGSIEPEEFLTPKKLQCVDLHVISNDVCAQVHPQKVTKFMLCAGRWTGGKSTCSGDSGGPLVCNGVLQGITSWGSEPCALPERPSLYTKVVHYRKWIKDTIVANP
T3 sequence (P00698 19-147 limits assumed): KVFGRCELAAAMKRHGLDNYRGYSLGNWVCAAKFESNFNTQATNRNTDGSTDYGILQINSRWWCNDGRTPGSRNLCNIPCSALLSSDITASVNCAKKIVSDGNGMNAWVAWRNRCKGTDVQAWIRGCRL
T2 sequence (P07288 25-261 limits assumed): as the sequence (P07288 25-261 limits assumed) above

B1: Anti-PSA Design 1 (humanized clone 10) (antibody, V domains shown)
VH: QVQLVQSGAEVKKPGSSVKVSCKASGYSFTDYNMNWVRQAPGQGLEWIGVISPDYGTPSYAQKFQGRVTITADESTSTAYMELSSLRSEDTAVYYCARGKGNYVVFAYWGQGTLVTVSS
VL: DIQMTQSPSSLSASVGDRVTITCKASQSVVNNVVWYQQKPGKAPKLLIYYASNRYSGVPSRFSGSGSGTDFTLTISSLQPEDFATYYCQQHYTSPLTFGPGTKVDIKR
notes: Full-length human IgG1/kappa chains; also called PSA1
binding result [1]: binds

B2: Anti-PSA Design 5 (humanized clone 10) (antibody, V domains shown)
VH: EVQLVQSGAEVKKPGATVKISCKVSGYSFTDYNMNWVQQAPGKGLEWIGVISPDYGTPSYAEKFQGRVTITADTSTDTAYMELSSLRSEDTAVYYCARGKGNYVVFAYWGQGTLVTVSS
VL: DIQMTQSPSSLSASVGDRVTITCKASQSVVNNVVWYQQKPGKAPKLLIYYASNRYSGVPSRFSGSGSGTEFTLTISSLQPEDFATYYCQQHYTSPLTFGPGTKVDIKR
notes: Full-length human IgG1/kappa chains; also called PSA5
binding result [2]: binds

B3: Anti-PSA Design 4 (humanized clone 10) (antibody, V domains shown)
VH: QVQLQESGPGLVKPSETLSLTCTVSGYSFTDYNMNWIRQPPGKGLEWIGVISPDYGTPSYNPSLKSRVTISVDTSKNQFSLKLSSVTAADTAVYYCARGKGNYVVFAYWGQGTLVTVSS
VL: DIQMTQSPSSLSASVGDRVTITCKASQSVVNNVVWYQQKPGKAPKLLIYYASNRYSGVPSRFSGSGSGTEFTLTISSLQPEDFATYYCQQHYTSPLTFGPGTKVDIKR
notes: Full-length human IgG1/kappa chains; also called PSA4
binding result [3]: binds | binding result [2]: binds

B4: Anti-PSA Design 2 (humanized clone 10) (antibody, V domains shown)
VH: QVQLVQSGAEVKKPGSSVKVSCKASGYSFTDYNMNWVRQAPGQGLEWIGVISPDYGTPSYAQKFQGRVTITADESTSTAYMELSSLRSEDTAVYYCARGKGNYVVFAYWGQGTLVTVSS
VL: DIVMTQTPLSLSVTPGQPASISCKASQSVVNNVVWYLQKPGQPPQLLIYYASNRYSGVPDRFSGSGSGTDFTLKISRVEAEDVGVYYCQQHYTSPLTFGPGTKVDIKR
notes: Full-length human IgG1/kappa chains; also called PSA2
binding result [1]: binds

B5: Anti-PSA Design 3 (humanized clone 10) (antibody, V domains shown)
VH: EVQLVQSGAEVKKPGATVKISCKVSGYSFTDYNMNWVQQAPGKGLEWIGVISPDYGTPSYAEKFQGRVTITADTSTDTAYMELSSLRSEDTAVYYCARGKGNYVVFAYWGQGTLVTVSS
VL: DIVMTQSPDSLAVSLGERATINCKASQSVVNNVVWYQQKPGQPPKLLIYYASNRYSGVPDRFSGSGSGTDFTLTISSLQAEDVAVYYCQQHYTSPLTFGPGTKVDIKR
notes: Full-length human IgG1/kappa chains; also called PSA3
binding result [1]: binds

B6: Anti-HEWL Design 6, scFv on yeast surface (scFv, V domains shown, not shown: large carriers; small tags and cut ends)
VH: EVQLVQSGAEVKKPGATVKISCKVSGYTFSTYWMEWVQQAPGKGLEWMGEVLPGSGSTYYAEKFQGRVTITADTSTDTAYMELSSLRSEDTAVYYCARGDGYFQHWGQGTLVTVSS
VL: EIVLTQSPDFQSVTPKEKVTITCRASQSISSNLHWYQQKPDQSPKLLIKYASQSFSGVPSRFSGSGSGTDFTLTINSLEAEDAATYYCHQSNSWPRTFGPGTKVDIK
notes: also called Des6 (scFv format)
binding result (hen-egg white lysozyme [4]): binds

B7: Anti-HEWL Design 1, human IgG1 (antibody, V domains shown)
VH: EVQLVQSGAEVKKPGATVKISCKVSGYTFSTYWMEWVQQAPGKGLEWMGEVLPGSGSTYYAEKFQGRVTITADTSTDTAYMELSSLRSEDTAVYYCARGDGYFQHWGQGTLVTVSS
VL: DIQMTQSPSSLSASVGDRVTITCRASQSISSNLNWYQQKPGKAPKLLIYYASSLQSGVPSRFSGSGSGTDFTLTISSLQPEDFATYYCQQSNSWPRTFGPGTKVDIKR
notes: also called Des 1; Des1
Kd (hen-egg white lysozyme [5]): 11 nM

B8: Anti-HEWL Design 1, human Fab (Fab, V domains shown)
VH: EVQLVQSGAEVKKPGATVKISCKVSGYTFSTYWMEWVQQAPGKGLEWMGEVLPGSGSTYYAEKFQGRVTITADTSTDTAYMELSSLRSEDTAVYYCARGDGYFQHWGQGTLVTVSS
VL: DIQMTQSPSSLSASVGDRVTITCRASQSISSNLNWYQQKPGKAPKLLIYYASSLQSGVPSRFSGSGSGTDFTLTISSLQPEDFATYYCQQSNSWPRTFGPGTKVDIKR
notes: The Fab heavy chain ends in a His tag; also called hαHEWL; design 1 (Fab)
Kd (hen-egg white lysozyme [6]): 41.6 nM

From patent US20250122311A1 (YEDA RESEARCH AND DEVELOPMENT, published 2025)
